According to paper PMC12658067:

What was measured:
[1] = target: C-tail deletion mutant of T7 gp4A' with 17 C-terminal amino acid residues deleted (gp4A' ΔCt) (bacteriophage T7) (UniProt P03692)
[2] = target: M64L mutant of T7 helicase gp4 (T7 gp4A') (bacteriophage T7) (UniProt P03692)
[3] = target: C-tail deletion mutant of T7 gp4A' with 17 C-terminal amino acid residues deleted (gp4A' ΔCt) (bacteriophage T7) (UniProt P03692); remark: listed apart in the source

fork regression during stalling under torsion (angular optical trap), ΔCt exo- replisome, mean fork position over a minute [1] | fork regression during stalling under torsion (angular optical trap), WT replisome, mean fork position over a minute [2] | fork regression during stalling under torsion (angular optical trap), ΔCt replisome, mean fork position over a minute [3] | Substance
340 bp |  |  | Exonuclease deficient mutant of T7 gp5 DNA polymerase (D5A, E7A) complexed with E. coli thioredoxin (from UniProt P00581 1-704; P0AA25 1-109)
 | 80 bp | 240 bp | Wild-type T7 gp5 DNA polymerase complexed with E. coli thioredoxin (from UniProt P00581 1-704; P0AA25 1-109)
